Earlier results, collected in article PMC9528458.

Target: Axin DAX (Homo sapiens) (UniProt O15169)
Sequence (O15169 780-862): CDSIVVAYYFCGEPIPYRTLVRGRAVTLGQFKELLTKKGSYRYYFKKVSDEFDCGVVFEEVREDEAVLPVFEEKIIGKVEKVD

Dishevelled DIX, sequence (O14641 8-96): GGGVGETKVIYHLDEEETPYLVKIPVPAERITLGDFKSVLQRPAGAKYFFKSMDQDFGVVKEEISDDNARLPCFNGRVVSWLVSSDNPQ

In the case of Dishevelled DIX (from UniProt O14641), the Kd is given as 15 µM.
